# In the supplement of paper PMC12042874:
# ± gives the uncertainty stated by the source.
# Experiment: amyloid nucleation score (Sup35N fusion, yeast selection) (log enrichment); library NNK2; higher = more nucleation; inactive = no reads after selection
# Procedure, shortened: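 For the nucleation score, DiMSum gave the log enrichment of output over input reads, centred on the mode score of non-aggregating sequences. Psi-negative yeast expressing Sup35N fused to peptides of 20 random codons were induced with 100 μM copper sulfate for 24 hours and grown 7 days at 30°C on medium lacking adenine and uracil. Input and output plasmid inserts were Illumina-sequenced, and sequences with under 100 input reads were excluded.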
row,Substance,amyloid nucleation score
1,VKNFYNSSINGLGLYMNMRF,2.43 ± 0.068
2,VKTKAVTRVMIP,0.589 ± 0.35
3,VKWTTVVD,0.963 ± 0.26
4,VKWTVNEVYGCYYCTGSVYA,6.154 ± 0.042
5,VKYFSYDIVGVGREYYFKTT,-0.555 ± 0.76
6,VLAHNSGWNGTKETYCMSNG,-0.436 ± 0.54
7,VLCCPSKISTALKCWVGEAC,0.233 ± 0.62
8,VLDFQTSYMLPEFVRPGVGY,0.216 ± 0.25
9,VLESYFDTYM,-2 ± 0.76
10,VLHRLRSLLERFLFYVDLIS,0.355 ± 0.65
11,VLITKYSFTRLEFTIKVTSS,0.386 ± 0.57
12,VLMKGRDPSVSGLKIEYLGN,0.193 ± 0.19
13,VLMYIWDLVGGSLSFKKVLF,inactive
14,VLNEDVRGKANTVVSSMG,0.413 ± 0.24
15,VLNRGGETAYTSMFDVYYI,-0.097 ± 0.63
16,VLNRLERASSVREQGIIRGR,0.252 ± 0.29
17,VLPMVRMSINIVVGCWSQKL,3.79 ± 0.081
18,VLPTEYSGFFSTRQLPSLDS,0.137 ± 0.79
19,VLPYSRVSTS,0.007 ± 0.28
20,VLREDSIELWPDGTVGGRTG,1.35 ± 0.37
21,VLSLLMPVVRIVWKFN,-0.084 ± 0.76
22,VLSLSVDFSCKRSCIMDTQV,3.95 ± 0.087
23,VLSNLIFYLSPFCIMHLMR,3.27 ± 0.13
24,VLTALVYVEITF,5.41 ± 0.066
25,VLVGVEWFV,0.318 ± 0.38

row,Substance,amyloid nucleation score
1,VLVSGYDLVVVDRVYLGRMF,2.56 ± 0.085
2,VLVSLFLPLENYFG,-0.549 ± 1
3,VLWIGFYLNLYLPYLCNHVD,3.37 ± 0.076
4,VLYSFSGVTPWHKYPCNCV,0.256 ± 0.46
5,VMFEFNLAGSDSSDKAAMVT,0.014 ± 0.49
6,VMFWLPPTSGNSWSDCTHKI,inactive
7,VMIIFLDNKRYGKAPNCGRM,7.263 ± 0.07
8,VMLGHYTVLFGVKVRECREG,1.7 ± 0.19
9,VMRMWRVSMRF,6.068 ± 0.032
10,VMTARHVLWSNLRVRPRGHD,0.867 ± 0.67
11,VMYYEGG,-0.561 ± 0.63
12,VNAPGTSYGYYVLNVQWGGW,1.12 ± 0.26
13,VNIDGRDRDNFVNGRSIMLR,inactive
14,VNLWCRYDWGVPGDSWGRDG,2.92 ± 0.078
15,VNRDRAQLWVACITCRCNFR,8.986 ± 0.049
16,VNRSTELHFIVMREMVWLKS,-0.287 ± 0.62
17,VNRVTRPNECYACQYMFGRW,1.19 ± 0.18
18,VNSMAMLCLRICIGTHQMCG,5.03 ± 0.054
19,VNSNINFMEGYGCFKKIVNF,-1.36 ± 0.75
20,VNVCWLKSATPNSCVDLVNI,0.946 ± 0.6
21,VNVDWCLLSVLVFNLETNPR,6.699 ± 0.032
22,VNVYLFYYYPHSSHCYIF,7.658 ± 0.056
23,VNWFRLWRTSQLLGRMMLCL,0.427 ± 0.56
24,VNWLCRSWRSNRSLEG,4.33 ± 0.087
25,VNYSYVATSYRLVAILSNVW,-1.36 ± 0.62

row,Substance,amyloid nucleation score
1,VPEFCVSSCNSVNLRASE,1.78 ± 0.14
2,VPGRYFSQELVFTLFLGMAK,-1.43 ± 0.61
3,VPKVKNLDWSSELAKFKLEV,2.95 ± 0.1
4,VPRSQIVVGIMFP,-1.06 ± 0.55
5,VPSHRPFVYHRKDLGFLGSV,0.269 ± 0.6
6,VPTLCLVLDRLLDSNR,-1.39 ± 0.62
7,VPVTGSNLPAVCKGHGVEYG,-0.045 ± 0.41
8,VPWLNGRVVASRKDKTRSSR,0.009 ± 0.76
9,VQKRRGFILTSFR,-0.173 ± 0.39
10,VQMGRPWTGALMVSYMIVNH,6.18 ± 0.063
11,VQVCKMICRFISLWGLLA,0.006 ± 0.44
12,VRAQKRSWGQGSL,1.23 ± 0.14
13,VRAYLQYR,0.094 ± 0.74
14,VREVDILYYC,0.418 ± 0.48
15,VRFTLYGCWGLMFFTMVGR,inactive
16,VRFYVCLFLRNEMKVGRMTW,3.86 ± 0.064
17,VRILYGS,6.06 ± 0.082
18,VRISAMVITV,-0.684 ± 0.55
19,VRIYTHWTRSYRPKFRSTWT,0.641 ± 0.74
20,VRKLSRNLMICYKTVLSGDC,-0.105 ± 0.65
21,VRLLGYIWKLLPHVVNQKV,0.31 ± 0.46
22,VRLTMQYGHVYPGCSLLPYV,4.75 ± 0.049
23,VRMWRGE,0.083 ± 0.49
24,VRNFYLYVMWPWVQEFY,7.457 ± 0.061
25,VRQRNNWFTMVIVCVISVMA,3.52 ± 0.13

row,Substance,amyloid nucleation score
1,VRRHADRGGVLAEISNEVVQ,0.608 ± 0.24
2,VRTIF,inactive
3,VSAELWIQSSVTSAYIIWQL,0.98 ± 0.81
4,VSCVCHYVNNFNPMLCNRKC,-0.064 ± 0.8
5,VSDDHFINCFYGQVSQRKVK,inactive
6,VSDRLTMFKSVRSVWMCWGQ,-0.146 ± 0.61
7,VSEANVTYINFFC,4.36 ± 0.089
8,VSFWFVFFWMISTRSEMMDR,-1.08 ± 0.53
9,VSFYDVH,0.011 ± 1.1
10,VSGLPN,inactive
11,VSGSSHVVKWVMKEGVIFI,inactive
12,VSHILINVSRGLRGS,-0.261 ± 0.8
13,VSIFMQRR,2.76 ± 0.13
14,VSKKFIIVVRNREFSP,4.43 ± 0.086
15,VSLIFQIRLRHRLTGAQMKR,0.762 ± 0.37
16,VSMIVGSDNVPVSFETDVSV,1.01 ± 0.39
17,VSNRLRLSFKRVPHHAGYRP,2.76 ± 0.2
18,VSRDLEVH,-0.001 ± 0.31
19,VSTSYVTTIVF,-0.237 ± 0.41
20,VSVDGKLRFRPT,0.313 ± 0.45
21,VSYSGNRYWCSFVNKKAGGN,1.32 ± 0.27
22,VSYYIRVYF,5.648 ± 0.054
23,VTCASWYYGKISGLYACYRL,0.641 ± 0.34
24,VTDRNIRLDPVALKHASVYG,-0.368 ± 0.38
25,VTGIATTS,0.44 ± 0.3

row,Substance,amyloid nucleation score
1,VTGTT,-0.01 ± 1
2,VTICIGVAFYVFCTSTSNCM,5.242 ± 0.039
3,VTKILCSRTWGKSG,0.325 ± 0.44
4,VTKSYITRSVFSVGNYSETS,-0.226 ± 1.1
5,VTKVLQFCSPSYLLYSRLNV,0.709 ± 0.47
6,VTLIRSSRVATSCHGGTLFC,3.45 ± 0.092
7,VTSGGLEWSRD,3.11 ± 0.05
8,VTSNGKRTWHVAAAFGAPGE,2.54 ± 0.12
9,VTVRAQY,-0.497 ± 0.45
10,VVDSTVGRADGTCGGVVGFA,0.87 ± 0.41
11,VVDVVIGYWGRVMSDGCVAG,0.816 ± 0.24
12,VVEFNVLHDDLEVQDKT,-1.16 ± 0.56
13,VVFRIVNRACVMYGVTGGND,-0.915 ± 0.63
14,VVILS,1.28 ± 0.29
15,VVILTFKAVYTAKFYACCAV,-0.104 ± 0.45
16,VVKYFCDHI,4.5 ± 0.07
17,VVNDIATLLRVMNEYYAESA,-0.531 ± 0.79
18,VVNKLF,inactive
19,VVPCWSVNKDSRSDRSD,-0.1 ± 1
20,VVRAVYGYQFYGIVL,0.648 ± 0.25
21,VVRHLWMTKYCRFMFISTVY,-0.898 ± 0.34
22,VVRHSLKRL,-0.228 ± 1.1
23,VVRMRENKRNIL,inactive
24,VVRVLLVWMFLLTLWHHLVN,-0.158 ± 0.34
25,VVSSGLHHRLLLCRIEGA,0.526 ± 0.26

row,Substance,amyloid nucleation score
1,VVSTSYIGGKKRSFCVRCGG,-0.73 ± 0.49
2,VVSVCLLGHNDKVLSYAQLC,0.071 ± 0.51
3,VVVFMHV,1.51 ± 0.32
4,VVVPDGFRNYEYGNSTLFVI,-0.99 ± 1.1
5,VVWVSITKWATRAVISHGDT,0.617 ± 0.32
6,VVYLEIVTRGATGYLVCLPC,-0.437 ± 0.6
7,VVYRYRVRHCL,0.725 ± 0.27
8,VWALKGMIYN,0.33 ± 0.17
9,VWDNIVPPQLISRRS,-0.813 ± 1.1
10,VWLTKIIGPVRKLVKNTLGC,5.542 ± 0.047
11,VWMHMSGSIIKSWFLVRCFS,-0.506 ± 0.38
12,VWQQS,0.668 ± 0.49
13,VWYRLTDAVYKRLTFLDII,-0.416 ± 0.56
14,VYALTGMDKYGGLALYLSWR,0.307 ± 0.44
15,VYAYRTEFQRW,0.886 ± 0.47
16,VYCFNSRSNFHTLMLSSGYG,-0.594 ± 0.55
17,VYCVDIFCTESLVCPTQTWG,6.055 ± 0.06
18,VYELCCLYMWLGHSNYAADM,5.33 ± 0.044
19,VYGCGSCLNCVVCMERCG,9.094 ± 0.048
20,VYKMIVSRVHC,-1.17 ± 1
21,VYLGIFRL,2.76 ± 0.13
22,VYNLARSRSKAERVV,0.201 ± 1
23,VYNWGGRLKP,0.147 ± 0.49
24,VYPVSPIMKGV,0.163 ± 0.49
25,VYTQYYNTKSKISYCFLRLI,inactive

row,Substance,amyloid nucleation score
1,VYTVVYGYNWISCDHFSWDT,7.47 ± 0.08
2,VYVFDIVRLG,0.465 ± 0.8
3,WCCPPHGRQP,0.876 ± 0.43
4,WCEGHKSW,-0.817 ± 1
5,WCFCSLLCVSGCLRPDPELP,1.28 ± 0.22
6,WCFFRVAFNW,1.88 ± 0.17
7,WCFLT,-0.343 ± 1.1
8,WCIKANSMSRNVYVEEMGER,-0.143 ± 0.24
9,WDIIF,-1.45 ± 0.34
10,WDNDQHIQRNLY,inactive
11,WDSDRSYVLSLFADVPLAKC,0.035 ± 1
12,WELHMI,-0.61 ± 1.1
13,WFDKFRMCEEFAYYFFLPQW,-0.856 ± 0.63
14,WFENNDESMGQEWNKHCTSV,0.718 ± 0.24
15,WFHVITFFLGASCIMWTKTR,inactive
16,WFIILRLIYVYGTNCAVYMV,-0.003 ± 0.42
17,WFRKGHHVVT,1.08 ± 0.41
18,WFSECCSMASIGHSDTMDGS,-0.567 ± 1.1
19,WGENARAESRTEEMLL,1.81 ± 0.22
20,WHCVRVIQRSWCVKEGSKGC,0.118 ± 0.45
21,WHENMSGTPKLASTNNGSKR,2.61 ± 0.18
22,WHGPYYCGGCRTDIVCWNRA,5.888 ± 0.05
23,WHSDSQTRRSSLSLLVCQID,0.935 ± 0.66
